In patent US20230365705A1 (DYNAMICURE BIOTECHNOLOGY, published 2023):

T1: Human CD93 on cells (human CD93 expressing CHO cells; HUVEC, U937 and KG1a cells) (human, UniProt Q9NPY3 22-652)
T1 construct: whole, on cells; also called hCD93 expressing CHO cells; hCD93 CHO cells
T1 sequence (looked up): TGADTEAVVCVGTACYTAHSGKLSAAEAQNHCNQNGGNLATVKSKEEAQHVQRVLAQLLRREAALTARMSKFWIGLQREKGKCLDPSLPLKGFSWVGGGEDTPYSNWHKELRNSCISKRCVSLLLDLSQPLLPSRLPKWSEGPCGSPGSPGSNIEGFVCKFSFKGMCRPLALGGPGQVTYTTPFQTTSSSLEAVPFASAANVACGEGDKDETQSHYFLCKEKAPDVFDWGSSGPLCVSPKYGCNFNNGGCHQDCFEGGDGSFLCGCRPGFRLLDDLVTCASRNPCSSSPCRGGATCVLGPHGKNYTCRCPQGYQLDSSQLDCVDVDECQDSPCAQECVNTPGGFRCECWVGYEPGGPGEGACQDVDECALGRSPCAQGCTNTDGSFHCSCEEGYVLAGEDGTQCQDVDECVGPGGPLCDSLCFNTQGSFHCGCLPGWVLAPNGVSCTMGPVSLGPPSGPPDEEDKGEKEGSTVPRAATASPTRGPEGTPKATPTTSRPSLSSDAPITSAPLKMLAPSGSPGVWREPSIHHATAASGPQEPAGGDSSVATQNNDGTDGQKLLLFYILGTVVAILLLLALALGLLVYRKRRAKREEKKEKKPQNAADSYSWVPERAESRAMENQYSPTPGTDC

T2: Human CD93 recombinant protein (Sino Biological Inc, Catalog #12589-H08H) (human, UniProt Q9NPY3 22-580)
T2 construct: Biotinylated (EZ-LINK NHS-PEG4 biotin) in the BLI assays; also called hCD93; His-tagged human CD93
T2 sequence (looked up): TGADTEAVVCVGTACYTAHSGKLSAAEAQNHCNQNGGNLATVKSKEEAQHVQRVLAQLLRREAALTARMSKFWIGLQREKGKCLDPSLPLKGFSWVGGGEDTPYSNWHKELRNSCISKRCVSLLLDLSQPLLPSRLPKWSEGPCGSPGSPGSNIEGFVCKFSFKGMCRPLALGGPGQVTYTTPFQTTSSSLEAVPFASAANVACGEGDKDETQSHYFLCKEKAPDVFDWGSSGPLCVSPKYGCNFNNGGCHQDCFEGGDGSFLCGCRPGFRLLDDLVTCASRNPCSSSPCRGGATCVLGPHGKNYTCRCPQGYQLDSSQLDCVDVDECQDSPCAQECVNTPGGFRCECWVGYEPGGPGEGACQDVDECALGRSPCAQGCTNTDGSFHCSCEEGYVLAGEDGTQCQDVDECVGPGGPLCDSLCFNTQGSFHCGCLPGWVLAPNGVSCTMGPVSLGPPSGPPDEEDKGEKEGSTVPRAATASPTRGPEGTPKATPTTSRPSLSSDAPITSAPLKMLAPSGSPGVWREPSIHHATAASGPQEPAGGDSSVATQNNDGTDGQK

T3: Mouse CD93 on cells (mouse CD93 expressing CHO cells; mouse CD93 expressing HEK cells) (mouse, UniProt O89103 23-644)
T3 construct: whole, on cells; also called mCD93 HEK; CD93-HEK cells
T3 sequence (looked up): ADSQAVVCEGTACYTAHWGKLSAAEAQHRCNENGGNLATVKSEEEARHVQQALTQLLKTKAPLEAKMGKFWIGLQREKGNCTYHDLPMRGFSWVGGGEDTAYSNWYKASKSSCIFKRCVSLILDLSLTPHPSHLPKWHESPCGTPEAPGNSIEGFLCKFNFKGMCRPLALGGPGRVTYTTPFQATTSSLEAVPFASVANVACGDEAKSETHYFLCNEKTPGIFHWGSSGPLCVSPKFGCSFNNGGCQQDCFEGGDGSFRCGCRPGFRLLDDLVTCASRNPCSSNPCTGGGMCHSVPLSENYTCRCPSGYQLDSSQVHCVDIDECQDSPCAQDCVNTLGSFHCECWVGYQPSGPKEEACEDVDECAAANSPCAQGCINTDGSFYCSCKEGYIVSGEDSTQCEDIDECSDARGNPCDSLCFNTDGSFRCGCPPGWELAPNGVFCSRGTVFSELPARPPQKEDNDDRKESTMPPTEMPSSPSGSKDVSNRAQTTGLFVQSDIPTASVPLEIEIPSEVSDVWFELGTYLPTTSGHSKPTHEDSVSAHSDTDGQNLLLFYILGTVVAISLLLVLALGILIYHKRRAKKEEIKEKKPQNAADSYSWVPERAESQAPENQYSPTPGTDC


Tests used:
[1] = target: T1, Human CD93 on cells (human CD93 …); assay: flow cytometry, CHO cells overexpressing human CD93, antibody 0.01ug, mIgG1 as control, APC-A
[2] = target: T1, Human CD93 on cells (human CD93 …); assay: flow cytometry titration on human CD93 CHO cells; column head printed kd, unit from the axis log (concentration (M))
Experimental: Cells were quenched with media then counted. Cells were resuspended in FACS buffer (ice cold PBS with 0.5% BSA) and human serum was added to 20% (10% final volume) and put on ice for approximately 20 minutes. 5×10⁴ cells were seeded per well in 100 μL and incubated with serial diluted anti-CD93 antibodies in 100 μL on ice for 2 hours. Samples were then washed by spinning samples at 1200 rpm for 5 minutes. Media was discarded and cells were resuspended in 200 μL ice cold FACS buffer. Cells were washed again and resuspended in 100 μL of secondary Antibody, AlexaFluor647 conjugated anti-human IgG or anti-mouse IgG antibodies (Jackson ImmunoResearch), diluted 1:500 in FACS buffer. Plates were covered with foil to protect from like and incubated for 1 hour on ice. Cells were washed again resuspended in 200 μL ice cold FACS buffer. Cells were washed again and were resuspended in 200 μL fixing solution (PBS with 1% formaldehyde). Samples were stored at 4° C. covered in foil, then were acquired in NovoCyte Flow Cytometer and analyzed by NovoExpress software.

[3] = target: T1, Human CD93 on cells (human CD93 …); assay: flow cytometry titration on U937 cells -human serum; column head printed kd, unit from the axis log (concentration (M))
Experimental: Cells were quenched with media then counted. Cells were resuspended in FACS buffer (ice cold PBS with 0.5% BSA) and put on ice ˜20 min. 5×10⁴ cells were seeded per well in 100 μL and incubated with serial diluted anti-CD93 antibodies in 100 μL on ice for 2 hours. Samples were then washed by spinning samples at 1200 rpm for 5 minutes. Media was discarded and cells were resuspended in 200 μL ice cold FACS buffer. Cells were washed again and resuspended in 100 μL of secondary Antibody, AlexaFluor647 conjugated anti-human IgG or anti-mouse IgG antibodies (Jackson ImmunoResearch), diluted 1:500 in FACS buffer. Plates were covered with foil to protect from light and were incubated for 1 hour on ice. Samples were then washed again and resuspended in 200 μL ice cold FACS buffer. Cells were washed again and resuspended in 200 μL fixing solution (PBS with 1% formaldehyde). Samples were stored at 4° C. covered in foil, ands were subsequently acquired in NovoCyte Flow Cytometer and analyzed by NovoExpress software.

[4] = target: T1, Human CD93 on cells (human CD93 …); assay: flow cytometry titration on HUVEC cells +human serum; column head printed kd, unit from the axis log (concentration (M))
Experimental: (§1) Recombinant parental anti-CD93 antibodies were evaluated for their ability to bind to HUVEC cells in the presence or absence of human serum. […] Antibodies were purified using Protein G Sepharose. The resulting antibodies were tested for its binding capacity to a variety of cells that express CD93. […] Cells were quenched with media then counted. Cells were resuspended in FACS buffer (ice cold PBS with 0.5% BSA) and human serum was added to 20% (10% final volume) and put on ice for approximately 20 minutes. 5×10⁴ cells were seeded per well in 100 μL media and incubated with serial diluted anti-CD93 antibodies in 100 μL on ice for 2 hours. Cells were then washed by spinning cells at 1200 rpm for 5 min. Media was discarded and cells were resuspended in 200 μL ice cold FACS buffer. The wash step was repeated and cells were resuspended in 100 μL of secondary antibody, AlexaFluor647 conjugated anti-human IgG or anti-mouse IgG antibodies (Jackson ImmunoResearch), diluted 1:500 in FACS buffer. Plates were blocked from light and incubated 1 hour at 4° C. Cells were then washed again then were resuspended in 200 μL ice cold FACS buffer. Cells were washed again and resuspended in 200 μL fixing solution (PBS with 1% formaldehyde). Samples were stored at 4° C. covered in foil, then were acquired in NovoCyte Flow Cytometer and analyzed by NovoExpress software.

[5] = target: T1, Human CD93 on cells (human CD93 …); assay: flow cytometry titration on HUVEC cells -human serum; column head printed kd, unit from the axis log (concentration (M))
Experimental: as §1

[6] = target: T2, Human CD93 recombinant protein (Sino …); assay: ELISA, hCD93-His coated, OD450
Experimental: His-tagged human CD93 was coated onto a 96 well plate at 1 μg/mL in 1×PBS overnight at 4° C. The plate was washed with ELISA wash buffer (Boston BioProduct, Inc.) and the wells were blocked with ELISA blocking buffer for 1 hour at 37° C. Purified antibodies were serially diluted in ELISA blocking buffer (Boston BioProduct, Inc.) and incubated on the receptor for 1 hour at 37° C. The plate was washed with ELISA wash Buffer. […] The plate was washed with ELISA wash buffer. HRP substrate was added for indirect detection of the antibodies binding to CD93.

[7] = target: T2, Human CD93 recombinant protein (Sino …); assay: summary table, column ELISA (hCD93)
[8] = target: T2, Human CD93 recombinant protein (Sino …); assay: summary table, column Octet (hCD93)
[9] = target: T1, Human CD93 on cells (human CD93 …); assay: flow cytometry, CHO-hCD93 cells, APC-A
[10] = target: T1, Human CD93 on cells (human CD93 …); assay: summary table, column FACS (HUVEC cells)
[11] = target: T1, Human CD93 on cells (human CD93 …); assay: summary table, column FACS (CHO-hCD93 cells)
[12] = target: T3, Mouse CD93 on cells (mouse CD93 …); assay: summary table; method and form of mouse CD93 not given
[13] = target: T2, Human CD93 recombinant protein (Sino …); assay: BLI (Octet), human CD93; sheet prints Anti-Penta-HIS(HIS1K) biosensor
[14] = target: T1, Human CD93 on cells (human CD93 …); assay: flow cytometry blocking assay, CHO-hCD93 cells, antibody 50 ug/ml then MMRN2 0.5 ug/ml, APC-A
Experimental: (§2) After incubation, the cells were washed with FACS buffer and incubated with anti-His conjugated APC or streptavidin conjugated APC at a ratio of 1:500 for 30 minutes at 4° C. After washing with FACS buffer twice, the samples were analyzed and data acquired in NovoCyte Flow.

[15] = target: T1, Human CD93 on cells (human CD93 …); assay: flow cytometry blocking assay, CHO-hCD93 cells, antibody 50 ug/ml then MMRN2 0.1 ug/ml, APC-A
Experimental: as §2

M2 gate, % of cells [1] [%]	Kd [2] [nM]	Kd [3] [nM]	Kd [4] [nM]	Kd [5] [nM]	EC50 [6] [nM]	EC50 [7] [nM]	Kd [8] [nM]	M3 gate, % of cells [9] [%]	EC50 [10] [nM]	EC50 [11] [nM]	binding result [12]	Kd [13] [nM]	koff [13] [s⁻¹]	kon [13] [M⁻¹ s⁻¹]	M3 gate, % of cells positive for MMRN2 after the antibody [14] [%]	M3 gate, % of cells positive for MMRN2 after the antibody [15] [%]	Binder
98.4	0.163	0.0666	0.196	0.111													Recombinant parental 17B10 with a human CH1 domain and mouse IgG1 CH2 and CH3 Fc domains (antibody, V domains shown) VH: QVQLQQSGPELVKPGASVKISCKASGYAFSSYWLNWVKQRPGKGLEWFGRIYPGDGDTDYNGKFKGKATLTADKSSSTAYMQLRSLTSEDSAVYFCVRGDGYWAMDYWGQGTSVTVSS VL: DIVMTQAAFSNPVTLGTSASISCRFSKSLLHSNGITYLYWYLQKPGQSPQLLIYQMSNLASGVPDRFSSSGSGTDFTLRISRVEAEDVGVYYCAQNLELPWTFGGGTKLEIK
					0.0667	0.0667	0.493	96.3	2.94	0.21	no binding	1.26	0.000478	381000	9.93	12.2	7F3 (hybridoma) (antibody, IgG1, V domains shown, also called 7F3 mAb; 7F3 mIgG1) VH: QVQLQQSGADLVRPGASVKLSCKASGYTFTDYEMHWVKQTPVYGLEWIGGIDPETGDTAYNQNFKGKATLTADKSSSAAYMELRSLTSEDSAVYYCTNYGNLYYYAMDYWGQGTSVTVSS VL: ENVLTQSPAIMSASPGEKVTMTCRASSSVSSSYLHWYQQKSGASPKLWIYSTSNLAFGVPARFSGSGSGTSYSLTISSVEAEDAATYYCQQYSGYPLTFGSGTKLEIK
